This note sets out measurements from publication PMC12352893, “Neuraminidase 1 secondary deficiency contributes to CNS pathology in neurological mucopolysaccharidoses via brain protein hypersialylation” (The Journal of Clinical Investigation, 2025).

The term stoichiometry N denotes a count of units in the complex or per binding partner.

This series deals with the molecule itself. Put plainly: SEC; gel filtration of total protein extracts from brain tissue of WT mice; GLB1 and NEU1 enzymatic activities measured in the eluted fractions. For orientation: Size exclusion chromatography separates by hydrodynamic size, large species first.

B1: β-galactosidase (GLB1), mouse brain (enzyme, mouse (endogenous in brain tissue), UniProt P23780 30-647, looked up)
chain: QRTFKLDYSRDRFLKDGQPFRYISGSIHYFRIPRFYWEDRLLKMKMAGLNAIQMYVPWNFHEPQPGQYEFSGDRDVEHFIQLAHELGLLVILRPGPYICAEWDMGGLPAWLLEKQSIVLRSSDPDYLVAVDKWLAVLLPKMKPLLYQNGGPIITVQVENEYGSYFACDYDYLRFLVHRFRYHLGNDVILFTTDGASEKMLKCGTLQDLYATVDFGTGNNITQAFLVQRKFEPKGPLINSEFYTGWLDHWGKPHSTVKTKTLATSLYNLLARGANVNLYMFIGGTNFAYWNGANTPYEPQPTSYDYDAPLSEAGDLTKKYFALREVIQMFKEVPEGPIPPSTPKFAYGKVALRKFKTVAEALGILCPNGPVKSLYPLTFTQVKQYFGYVLYRTTLPQDCSNPKPIFSSPFNGVRDRAYVSVDGVPQGILDRNLMTALNIRGKAGATLDILVENMGRVNYGRFINDFKGLISNMTINSTVLTNWTVFPLNTEAMVRNHLWGREASDEGHLDGRSTSNSSDLILPTFYVGNFSIPSGIPDLPQDTFIQFPGWSKGQVWINGFNLGRYWPTMGPQKTLFVPRNILTTSAPNNITVLELEFAPCSEGTPELCTVEFVDTPVIS
notes: β-galactosidase (GLB1), mouse, endogenous in brain extracts; detected by its enzymatic activity in gel-filtration fractions; Eluted both in the ~1,200 kDa LMC peak and as a 240 kDa tetramer; also called lysosomal β-galactosidase; source: endogenous, total protein extracts from mouse brain tissue
Regarding B1, the “stoichiometry N” value is 4.
